In article PMC11246235:

Biological target: T1, CST (Ctc1/Stn1/Ten1), His6-MBP tag of Ctc1 cleaved off (human), Q2NKJ3
T1 chain 1: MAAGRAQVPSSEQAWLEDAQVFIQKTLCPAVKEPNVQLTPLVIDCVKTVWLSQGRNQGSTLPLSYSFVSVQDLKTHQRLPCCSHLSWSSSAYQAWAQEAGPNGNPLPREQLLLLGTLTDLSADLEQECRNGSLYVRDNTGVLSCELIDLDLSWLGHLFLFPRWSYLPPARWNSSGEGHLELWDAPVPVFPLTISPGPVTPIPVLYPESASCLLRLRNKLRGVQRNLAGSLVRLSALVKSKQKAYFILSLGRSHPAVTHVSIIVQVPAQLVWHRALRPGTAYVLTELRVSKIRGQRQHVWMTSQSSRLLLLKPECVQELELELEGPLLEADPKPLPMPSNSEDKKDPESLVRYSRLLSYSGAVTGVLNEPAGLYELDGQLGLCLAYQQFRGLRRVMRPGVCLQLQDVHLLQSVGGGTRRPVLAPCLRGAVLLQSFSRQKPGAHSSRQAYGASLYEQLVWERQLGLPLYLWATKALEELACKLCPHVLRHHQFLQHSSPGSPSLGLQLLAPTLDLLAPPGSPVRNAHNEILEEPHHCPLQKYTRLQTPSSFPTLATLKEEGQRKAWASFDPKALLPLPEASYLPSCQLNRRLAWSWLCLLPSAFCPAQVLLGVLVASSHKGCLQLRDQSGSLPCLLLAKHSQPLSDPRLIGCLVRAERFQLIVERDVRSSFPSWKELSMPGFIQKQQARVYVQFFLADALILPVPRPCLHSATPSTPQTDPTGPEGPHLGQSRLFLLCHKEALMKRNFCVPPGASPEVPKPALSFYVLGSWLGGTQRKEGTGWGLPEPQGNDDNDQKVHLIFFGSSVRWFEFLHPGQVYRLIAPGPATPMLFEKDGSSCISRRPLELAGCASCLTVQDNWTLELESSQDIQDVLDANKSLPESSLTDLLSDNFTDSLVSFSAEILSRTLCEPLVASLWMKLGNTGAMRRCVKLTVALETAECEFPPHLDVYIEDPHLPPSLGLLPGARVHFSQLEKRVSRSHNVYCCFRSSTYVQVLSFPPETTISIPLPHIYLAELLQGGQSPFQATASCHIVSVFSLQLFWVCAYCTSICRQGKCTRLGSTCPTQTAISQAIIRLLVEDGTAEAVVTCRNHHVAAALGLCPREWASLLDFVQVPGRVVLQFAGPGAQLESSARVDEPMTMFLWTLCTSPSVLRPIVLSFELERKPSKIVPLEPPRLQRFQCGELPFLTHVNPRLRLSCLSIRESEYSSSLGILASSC
T1 chain 2: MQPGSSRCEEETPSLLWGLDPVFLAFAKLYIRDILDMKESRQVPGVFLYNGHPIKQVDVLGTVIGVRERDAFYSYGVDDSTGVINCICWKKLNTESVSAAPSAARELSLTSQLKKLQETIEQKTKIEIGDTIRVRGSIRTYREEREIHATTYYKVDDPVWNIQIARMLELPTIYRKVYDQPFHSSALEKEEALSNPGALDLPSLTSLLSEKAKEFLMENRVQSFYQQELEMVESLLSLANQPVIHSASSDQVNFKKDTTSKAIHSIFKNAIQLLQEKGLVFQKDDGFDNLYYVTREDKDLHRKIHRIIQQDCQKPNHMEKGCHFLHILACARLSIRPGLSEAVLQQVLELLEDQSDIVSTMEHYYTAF
T1 chain 3: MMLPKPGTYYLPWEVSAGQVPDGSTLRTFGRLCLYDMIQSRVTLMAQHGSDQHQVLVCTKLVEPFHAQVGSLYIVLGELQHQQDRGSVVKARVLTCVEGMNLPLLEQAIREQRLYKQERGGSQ
Test: negative-stain EM
Settings: remark: other sources report otherwise

B1: CST (Ctc1/Stn1/Ten1), His6-MBP tag of Ctc1 cleaved off, Q2NKJ3 1-1217; Q9H668 1-368; Q86WV5 1-123 (complex)
chain 1: MAAGRAQVPSSEQAWLEDAQVFIQKTLCPAVKEPNVQLTPLVIDCVKTVWLSQGRNQGSTLPLSYSFVSVQDLKTHQRLPCCSHLSWSSSAYQAWAQEAGPNGNPLPREQLLLLGTLTDLSADLEQECRNGSLYVRDNTGVLSCELIDLDLSWLGHLFLFPRWSYLPPARWNSSGEGHLELWDAPVPVFPLTISPGPVTPIPVLYPESASCLLRLRNKLRGVQRNLAGSLVRLSALVKSKQKAYFILSLGRSHPAVTHVSIIVQVPAQLVWHRALRPGTAYVLTELRVSKIRGQRQHVWMTSQSSRLLLLKPECVQELELELEGPLLEADPKPLPMPSNSEDKKDPESLVRYSRLLSYSGAVTGVLNEPAGLYELDGQLGLCLAYQQFRGLRRVMRPGVCLQLQDVHLLQSVGGGTRRPVLAPCLRGAVLLQSFSRQKPGAHSSRQAYGASLYEQLVWERQLGLPLYLWATKALEELACKLCPHVLRHHQFLQHSSPGSPSLGLQLLAPTLDLLAPPGSPVRNAHNEILEEPHHCPLQKYTRLQTPSSFPTLATLKEEGQRKAWASFDPKALLPLPEASYLPSCQLNRRLAWSWLCLLPSAFCPAQVLLGVLVASSHKGCLQLRDQSGSLPCLLLAKHSQPLSDPRLIGCLVRAERFQLIVERDVRSSFPSWKELSMPGFIQKQQARVYVQFFLADALILPVPRPCLHSATPSTPQTDPTGPEGPHLGQSRLFLLCHKEALMKRNFCVPPGASPEVPKPALSFYVLGSWLGGTQRKEGTGWGLPEPQGNDDNDQKVHLIFFGSSVRWFEFLHPGQVYRLIAPGPATPMLFEKDGSSCISRRPLELAGCASCLTVQDNWTLELESSQDIQDVLDANKSLPESSLTDLLSDNFTDSLVSFSAEILSRTLCEPLVASLWMKLGNTGAMRRCVKLTVALETAECEFPPHLDVYIEDPHLPPSLGLLPGARVHFSQLEKRVSRSHNVYCCFRSSTYVQVLSFPPETTISIPLPHIYLAELLQGGQSPFQATASCHIVSVFSLQLFWVCAYCTSICRQGKCTRLGSTCPTQTAISQAIIRLLVEDGTAEAVVTCRNHHVAAALGLCPREWASLLDFVQVPGRVVLQFAGPGAQLESSARVDEPMTMFLWTLCTSPSVLRPIVLSFELERKPSKIVPLEPPRLQRFQCGELPFLTHVNPRLRLSCLSIRESEYSSSLGILASSC
chain 2: MQPGSSRCEEETPSLLWGLDPVFLAFAKLYIRDILDMKESRQVPGVFLYNGHPIKQVDVLGTVIGVRERDAFYSYGVDDSTGVINCICWKKLNTESVSAAPSAARELSLTSQLKKLQETIEQKTKIEIGDTIRVRGSIRTYREEREIHATTYYKVDDPVWNIQIARMLELPTIYRKVYDQPFHSSALEKEEALSNPGALDLPSLTSLLSEKAKEFLMENRVQSFYQQELEMVESLLSLANQPVIHSASSDQVNFKKDTTSKAIHSIFKNAIQLLQEKGLVFQKDDGFDNLYYVTREDKDLHRKIHRIIQQDCQKPNHMEKGCHFLHILACARLSIRPGLSEAVLQQVLELLEDQSDIVSTMEHYYTAF
chain 3: MMLPKPGTYYLPWEVSAGQVPDGSTLRTFGRLCLYDMIQSRVTLMAQHGSDQHQVLVCTKLVEPFHAQVGSLYIVLGELQHQQDRGSVVKARVLTCVEGMNLPLLEQAIREQRLYKQERGGSQ
B1 was tested, and the stoichiometry N was 2.
